One series addresses KaiCRS (Cereibacter sphaeroides, UniProt A0AAX7FLD9, E415S/E416S). As to the kind of experiment: […] phosphoryl transfer from phosphoserine to ADP, TLC autoradiography. It is filed as biochemical. Particulars: 4 mM ADP, ATP synthase reaction in CII domain, Ser413, pH 6.5, 30 °C.
A further series addresses T1, KaiCRS-Δcoil (Cereibacter sphaeroides, UniProt A0AAX7FLD9, E415S/E416S).
T1 construct: C-terminal coiled-coil truncated at Glu490 (stop codon introduced at position 490)
In words: X-ray crystal structure. It is filed as binding. The note with it: ADP in all active sites.

Series [1] concerns the target KaiCRS-S413E/S414E (phosphomimetic mutant) (Rhodobacter sphaeroides strain KD131/KCTC 12085). In words: cryo-EM structure; KaiCRS-S413E/S414E:KaiBRS complex, 20 mM MOPS pH 6.50, 50 mM NaCl, 2 mM TCEP, 10 mM MgCl2, 2 mM ATP; ADP in the CI domain.
Series [2] has as its target KaiC from Rhodobacter sphaeroides KD131, wild type, full length (KaiCRS) (Rhodobacter sphaeroides strain KD131/KCTC 12085). In words: fluorescence polarisation; anisotropy competition, 30 °C: KaiBRS-6IAF (0.2-0.4 μM) with KaiCRS (1 μM), unlabelled KaiBRS 0-50 μM, 20 mM MOPS pH 6.5, 50 mM NaCl, 2 mM TCEP, 10 mM MgCl2, 4 mM ADP; 4 h or 12 h; Kd calculated from IC50.
For series [3], the target named is KaiCRS-S413E/S414E (phosphomimetic mutant) (Rhodobacter sphaeroides strain KD131/KCTC 12085). The description is as above.
Series [4] has as its target KaiC from Rhodobacter sphaeroides KD131, wild type, full length (KaiCRS) (Rhodobacter sphaeroides strain KD131/KCTC 12085).
Series [5] has the same target. This is another data set of the same source.
The target is the same in series [6]. As to the kind of experiment: crystal structure; KaiCRS, sitting drop at 291 K; protein 10 mg/ml in 20 mM MOPS pH 6.5, 50 mM NaCl, 2 mM TCEP, 5 mM MgCl2, 3 mM ATP, 1 mM AMPPCP; 200 mM MgCl2, 100 mM HEPES pH 7.5, 30% PEG 400.
For series [7] the target is unchanged. In words: SEC; Superdex-200 10/300 GL, unphosphorylated KaiCRS (40 μM) bound with ADP, buffer with 0.1 mM ADP instead of ATP, 4 °C.
Series [8] has the same target. As to the kind of experiment: SEC; Superdex-200 10/300 GL, about 40-80 μM protein, 20 mM MOPS pH 6.5, 50 mM NaCl, 2 mM TCEP, 10 mM MgCl2, 1 mM ATP, 4 °C.
The target is the same in series [9]. As to the kind of experiment: AUC; sedimentation velocity, 30,000 r.p.m., 20 °C, 295 nm; 100 μM protein, 1 mM ATP (KaiCRS forms: 20 mM MOPS pH 6.5, 50 mM NaCl; KaiCSE: 20 mM MOPS pH 8.0, 150 mM NaCl).
Series [10] has as its target KaiCRS-CI domain (KaiCIRS) (Rhodobacter sphaeroides strain KD131/KCTC 12085). As to the kind of experiment: SEC; Superdex-200 10/300 GL, about 40-80 μM protein, 20 mM MOPS pH 6.5, 50 mM NaCl, 2 mM TCEP, 10 mM MgCl2, 1 mM ATP, 4 °C.
Series [11] has as its target His6-MBP-TEV-KaiBRS (KaiBRS-tag) (Rhodobacter sphaeroides strain KD131/KCTC 12085). In words: pull-down; as a10 but with 4 mM ATP and an ATP-recycling system instead of ADP.
The target of series [12] is KaiCRS-S413E/S414E (phosphomimetic mutant) (Rhodobacter sphaeroides strain KD131/KCTC 12085). In words: cryo-EM structure; KaiCRS-S413E/S414E alone, 4.3 mg/ml in 20 mM MOPS pH 6.50, 50 mM NaCl, 2 mM TCEP, 10 mM MgCl2, 2 mM ATP; hexamers processed with C6, dodecamer with D6 symmetry.
Series [13] concerns the target KaiCRS-Δcoil (KaiCRS truncated at residue Glu490) (Rhodobacter sphaeroides strain KD131/KCTC 12085). In words: SEC; Superdex-200 10/300 GL, about 40-80 μM protein, 20 mM MOPS pH 6.5, 50 mM NaCl, 2 mM TCEP, 10 mM MgCl2, 1 mM ATP, 4 °C. In general terms: In gel filtration, larger molecules generally elute earlier.
Series [14] shares this target. In words: crystal structure; KaiCRS-Δcoil, sitting drop at 291 K; 200 mM ammonium acetate, 100 mM sodium citrate pH 5.6, 30% PEG 4,000; space group C2221, three monomers in the asymmetric unit, hexamer by PISA.
The target is the same in series [15]. As to the kind of experiment: AUC; sedimentation velocity, 30,000 r.p.m., 20 °C, 295 nm; 100 μM protein, 1 mM ATP (KaiCRS forms: 20 mM MOPS pH 6.5, 50 mM NaCl; KaiCSE: 20 mM MOPS pH 8.0, 150 mM NaCl).
Series [16] deals with the molecule itself. The description is as above.
Series [17] deals with the molecule itself. In words: SEC; Superdex-75 10/300 GL, KaiBRS 0.5 mM, 20 mM MOPS pH 6.5, 50 mM NaCl, 2 mM TCEP, 4 °C.

The text below walks through data of article PMC10076222, “From primordial clocks to circadian oscillators” (Nature, 2023).

His6-MBP-TEV-KaiBRS (KaiBRS-tag) (Rhodobacter sphaeroides strain KD131/KCTC 12085), sequence (main, as listed by the source): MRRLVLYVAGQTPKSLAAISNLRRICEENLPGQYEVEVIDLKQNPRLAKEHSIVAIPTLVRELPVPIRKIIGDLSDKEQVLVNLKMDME
T1 sequence (A0AAX7FLD9 entry or part of it E415S/E416S): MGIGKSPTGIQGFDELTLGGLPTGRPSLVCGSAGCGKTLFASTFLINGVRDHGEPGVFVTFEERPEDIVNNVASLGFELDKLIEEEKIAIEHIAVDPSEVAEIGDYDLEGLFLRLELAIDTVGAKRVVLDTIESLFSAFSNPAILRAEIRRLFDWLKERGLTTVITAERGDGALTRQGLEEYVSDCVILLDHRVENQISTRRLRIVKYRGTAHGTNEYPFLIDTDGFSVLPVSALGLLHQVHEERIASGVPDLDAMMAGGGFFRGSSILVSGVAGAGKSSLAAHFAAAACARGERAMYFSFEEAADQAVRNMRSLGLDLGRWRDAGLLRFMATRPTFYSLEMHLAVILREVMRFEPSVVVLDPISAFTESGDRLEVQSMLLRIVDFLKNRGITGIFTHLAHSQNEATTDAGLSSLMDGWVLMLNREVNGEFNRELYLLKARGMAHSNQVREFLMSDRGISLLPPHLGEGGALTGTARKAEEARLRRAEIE
KaiCRS, sequence (A0AAX7FLD9 entry or part of it E415S/E416S): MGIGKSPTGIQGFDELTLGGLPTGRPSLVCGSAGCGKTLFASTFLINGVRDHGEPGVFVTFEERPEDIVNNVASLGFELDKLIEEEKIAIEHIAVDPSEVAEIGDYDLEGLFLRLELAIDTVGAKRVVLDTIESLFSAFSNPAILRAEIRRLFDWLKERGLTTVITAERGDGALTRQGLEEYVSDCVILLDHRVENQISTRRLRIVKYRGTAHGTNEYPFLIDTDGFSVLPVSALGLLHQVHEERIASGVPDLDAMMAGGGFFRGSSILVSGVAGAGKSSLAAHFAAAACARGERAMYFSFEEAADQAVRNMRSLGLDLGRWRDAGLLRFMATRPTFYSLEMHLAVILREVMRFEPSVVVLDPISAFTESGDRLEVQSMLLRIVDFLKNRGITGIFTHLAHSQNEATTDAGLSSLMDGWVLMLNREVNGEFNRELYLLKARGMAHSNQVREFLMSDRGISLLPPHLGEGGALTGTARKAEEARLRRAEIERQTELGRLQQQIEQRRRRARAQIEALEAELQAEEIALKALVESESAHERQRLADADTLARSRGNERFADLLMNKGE

As to `Nc1ncnc2c1ncn2[C@@H]1O[C@H](COP(=O)(O)OP(=O)(O)O)[C@@H](O)[C@H]1O` [ADP], at KaiCRS, the “32P phosphoryl transfer from phosphoserine to ADP, TLC autoradiography” value is reported as “KaiCRS undergoes dephosphorylation through an ATP synthase mechanism”. Besides, at KaiCRS-Δcoil, the X-ray crystal structure entry is “contained three monomers in the asymmetric unit, with ADP present in all active sites”.
In turn, “KaiB from Rhodobacter sphaeroides KD131 (KaiBRS), tag cleaved (natural protein)” had a stoichiometry N (KaiBRS per KaiCRS dodecamer) in series [1] of 12. For the same molecule, the equilibrium dissociation constant (Kd) is 420 nM in [2] and 790 nM in [3]. Besides, the fold increase in ATPase activity of KaiCRS with KaiBRS at 30 °C in series [4] is 7.5 fold. This molecule also showed an ATPase activity of KaiCRS (3.5 μM) with KaiBRS (3.5 μM) in 4 mM ATP, ADP by HPLC, 20-35 °C (with KaiBRS 176, 1052, 1557, 2584; alone 108, 163, 208, 300 day^-1 KaiC^-1) in series [5] of 2580 ATP/day/KaiC.
As for “KaiC from Rhodobacter sphaeroides KD131, wild type, full length (KaiCRS) (enzyme)”, the stoichiometry N in series [6], in series [7], in series [8] and in series [9] was 12 each time.
Consider “KaiCRS-CI domain (KaiCIRS) (domain or fragment)”, for which, in series [10], the stoichiometry N came to 6.
KaiCRS-S413A/S414A (enzyme) showed a percent co-eluted in [11] of less than 30%.
With “KaiCRS-S413E/S414E (phosphomimetic mutant) (enzyme)”, the stoichiometry N in [1] and in [12] was 12 throughout. The percent co-eluted in series [11] was less than 30%.
Regarding “KaiCRS-Δcoil (KaiCRS truncated at residue Glu490) (domain or fragment)”, the stoichiometry N in series [13], in series [14] and in [15] was 6 in each case.
“phosphorylated wild-type KaiCRS (ATP-bound, with ATP-recycling system) (enzyme)”: the percent co-eluted in [11] is less than 30%.

B1: KaiC from Synechococcus elongatus PCC 7942 (KaiCSE) (enzyme)
chain: MTSAEMTSPNNNSEHQAIAKMRTMIEGFDDISHGGLPIGRSTLVSGTSGTGKTLFSIQFLYNGIIEFDEPGVFVTFEETPQDIIKNARSFGWDLAKLVDEGKLFILDASPDPEGQEVVGGFDLSALIERINYAIQKYRARRVSIDSVTSVFQQYDASSVVRRELFRLVARLKQIGATTVMTTERIEEYGPIARYGVEEFVSDNVVILRNVLEGERRRRTLEILKLRGTSHMKGEYPFTITDHGINIFPLGAMRLTQRSSNVRVSSGVVRLDEMCGGGFFKDSIILATGATGTGKTLLVSRFVENACANKERAILFAYEESRAQLLRNAYSWGMDFEEMERQNLLKIVCAYPESAGLEDHLQIIKSEINDFKPARIAIDSLSALARGVSNNAFRQFVIGVTGYAKQEEITGLFTNTSDQFMGAHSITDSHISTITDTIILLQYVEIRGEMSRAINVFKMRGSWHDKAIREFMISDKGPDIKDSFRNFERIISGSPTRITVDEKSELSRIVRGVQEKGPES
notes: KaiC of Synechococcus elongatus PCC 7942; source: plasmid a gift from E. K. O'Shea
For B1, the “stoichiometry N” value in series [16] stood at 6.

B2: KaiB from Synechococcus elongatus PCC 7942 (KaiBSE) (natural protein, UniProt Q79PF5 1-102, looked up)
chain: MSPRKTYILKLYVAGNTPNSVRALKTLKNILEVEFQGVYALKVIDVLKNPQLAEEDKILATPTLAKVLPLPVRRIIGDLSDREKVLIGLDLLYGELQDSDDF
notes: KaiB of Synechococcus elongatus PCC 7942
Take B2: the “stoichiometry N” value in [17] turned out to be 4.

By Kd is commonly meant the equilibrium constant for the complex coming apart. The stoichiometry N is a count of units in the complex or per binding partner.
